Data taken from paper PMC9110858.

What was measured:
[1] = target: IL-15 (Homo sapiens) (UniProt P40933); conditions: cited from earlier work
[2] = target: IL-2 (Homo sapiens) (UniProt P60568); conditions: cited from earlier work
[3] = target: trimeric IL-15Rα/IL-2Rβ/γc receptor on Kit225 cells (human (endogenous in Kit225)) (UniProt Q13261)

UniProt P40933, sequence (P40933 49-162): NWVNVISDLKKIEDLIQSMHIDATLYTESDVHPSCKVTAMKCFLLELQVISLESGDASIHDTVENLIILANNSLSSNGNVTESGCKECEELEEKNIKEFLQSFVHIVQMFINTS
UniProt P60568, sequence (P60568 21-153): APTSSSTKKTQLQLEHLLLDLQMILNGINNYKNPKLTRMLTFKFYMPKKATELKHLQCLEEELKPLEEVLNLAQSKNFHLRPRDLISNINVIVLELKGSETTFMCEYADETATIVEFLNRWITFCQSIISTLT

IL-15Rα (from UniProt Q13261)
Kd [1]: 0.05 nM

IL-2Rα (from UniProt P01589)
Kd [2]: 10 nM

NANTIL-15 (New ANTagonist of IL-15), human IL-15 L45D-N65K-L69R linked to a human Fc (IgG1) (Fc fusion)
IC50 of inhibition of IL-15- or IL-15D8S-induced Kit225 cell proliferation by increasing NANTIL-15 [3]: < 1 nM
IC50 of inhibition of IL-15-induced Stat5 phosphorylation in Kit225 cells by increasing NANTIL-15 (blocks IL-15 acting through the trimeric IL-15Rα/IL-2Rβ/γc receptor) [3]: 1 nM
IC50 of inhibition of IL-15D8S-induced pStat5 signal in Kit225 cells by increasing NANTIL-15 (IL-15D8S signals only through the trimeric receptor) [3]: 1 nM
plateau of inhibition of IL-15-induced Stat5 phosphorylation in Kit225 cells by increasing NANTIL-15 [3]: 60%
